Measured values from patent US20120324600A1, “CONSTITUTIVE SYNTHETIC PLANT PROMOTERS AND METHODS OF USE” (SYNGENTA PARTICIPATIONS AG, priority 2010, published 2012).

B1: SEQ ID NO: 4: synthetic plant promoter, subelements eFMV, eTMV; 267 bp (nucleic acid)
DNA: AGCTGCTTGTGGGGACCAGACAAAAAAGGAATGGTGCAGAATTGTTAGGCGCACCTACCAAAAGCATCTTTGCCTTTATTGCAAAGATAAAGCAGATTCCTCTAGTACAAGTGGGGAACAAAATAACGTGGAAAAGAGCTGTCCTGACAGCCCACTCACTAATGCGTATGACGAACGCAGTGACGACCACAAAACTCGAGTATTTTTACAACAATTACCAACAACAACAAACAACAAACAACATTACAATTACTATTTACAATTACA
modifications: synthetic plant promoter
notes: synthetic plant promoter, subelements eFMV, eTMV; 267 bp
B2: SEQ ID NO: 8: synthetic plant promoter for maize, subelements eFMV, e35S, prTaHisH3, eTMV; 834 bp (nucleic acid)
DNA: AGCTGCTTGTGGGGACCAGACAAAAAAGGAATGGTGCAGAATTGTTAGGCGCACCTACCAAAAGCATCTTTGCCTTTATTGCAAAGATAAAGCAGATTCCTCTAGTACAAGTGGGGAACAAAATAACGTGGAAAAGAGCTGTCCTGACAGCCCACTCACTAATGCGTATGACGAACGCAGTGACGACCACAAAACTCGAGACTTTTCAACAAAGGGTAATATCCGGAAACCTCCTCGGATTCCATTGCCCAGCTATCTGTCACTTTATTGTGAAGATAGTGGAAAAGGAAGGTGGCTCCTACAAATGCCATCATTGCGATAAAGGAAAGGCTATCGTTGAAGATGCCTCTGCCGACAGTGGTCCCAAAGATGGACCCCCACCCACGAGGAGCATCGTGGAAAAAGAAGACGTTCCAACCACGTCTTCAAAGCAAGTGGATTGATGTGATATCTCCACTGACGTAAGGGATGACGAACAATCCCACTATCCTTCTGCCGGACCCAAGCTTTCGGCCACGTCACCAATCCGCGGCATTCCTACCCGGATCGCCATCTCGACCGTCCACTCCATCCGCATCCAACGGCAAGTACATGCCTCTCGTCCCCTCCCGAAAAACCAAAACCCAAACCCGCCCGCTCTCTCGGTGCTCCTCCTATTTAACTCCGCCCCGTCCCCTTCTTCCTCCTCACCCCAATCTCCCCAGCCCCCAACCACCAGAGCCTCCTCCTCCCCTCCGGCGCATCGACGACAAGGGATCCACCTCGAGTATTTTTACAACAATTACCAACAACAACAAACAACAAACAACATTACAATTACTATTTACAATTACACATGTAAACC
modifications: synthetic plant promoter
notes: synthetic plant promoter for maize, subelements eFMV, e35S, prTaHisH3, eTMV; 834 bp
B3: SEQ ID NO: 9: synthetic plant promoter for maize, subelements eFMV, e35S, eNOS, prCMP, xZmH3Cis, eTMV; 1294 bp (nucleic acid)
DNA: AGCTGCTTGTGGGGACCAGACAAAAAAGGAATGGTGCAGAATTGTTAGGCGCACCTACCAAAAGCATCTTTGCCTTTATTGCAAAGATAAAGCAGATTCCTCTAGTACAAGTGGGGAACAAAATAACGTGGAAAAGAGCTGTCCTGACAGCCCACTCACTAATGCGTATGACGAACGCAGTGACGACCACAAAACTCGAGACTTTTCAACAAAGGGTAATATCCGGAAACCTCCTCGGATTCCATTGCCCAGCTATCTGTCACTTTATTGTGAAGATAGTGGAAAAGGAAGGTGGCTCCTACAAATGCCATCATTGCGATAAAGGAAAGGCTATCGTTGAAGATGCCTCTGCCGACAGTGGTCCCAAAGATGGACCCCCACCCACGAGGAGCATCGTGGAAAAAGAAGACGTTCCAACCACGTCTTCAAAGCAAGTGGATTGATGTGATATCTCCACTGACGTAAGGGATGACGAACAATCCCACTATCCTTCTGCCGGACCCTCATGAGCGGAGAATTAAGGGAGTCACGTTATGACCCCCGCCGATGACGCGGGACAAGCCGTTTTACGTTTGGAACTGACAGAACCGCAACGAAGCTTTGGCAGACAAAGTGGCAGACATACTGTCCCACAAATGAAGATGGAATCTGTAAAAGAAAACGCGTGAAATAATGCGTCTGACAAAGGTTAGGTCGGCTGCCTTTAATCAATACCAAAGTGGTCCCTACCACGATGGAAAAACTGTGCAGTCGGTTTGGCTTTTTCTGACGAACAAATAAGATTCGTGGCCGACAGGTGGGGGTCCACCATGTGAAGGCATCTTCAGACTCCAATAATGGAGCAATGACGTAAGGGCTTACGAAATAAGTAAGGGTAGTTTGGCATATGCTGGTGGCAGAGGGTGTGCTTCCCTGCTTGGGCGGGCACGCTGGGATGGCGAAAATTTTCGGAAGCGCTGGGATGGCGAAAATTTTCGGAAGCGCTGGGCGCTGGCGCGGGCGGCGGACAACTATGGGTCGTTGGATTGGGAATTGGGATGGAGGGCGAGGGTGTCGCTGCTGGCGGGGGTCGATCCGCGTGTTGAGCGATCTGCGAGGATTATGTCCACTCACCCGTCAGTCTATAAATACTTAGCCCCTCCCTCATTGTTAAGGGAGCAAAATCTCAGAGAGATAGTCCTAGAGAGAGAAAGAGAGCAAGTAGCCTAGAAGTGGATCCACCTCGAGTATTTTTACAACAATTACCAACAACAACAAACAACAAACAACATTACAATTACTATTTACAATTACACATGTAAACC
modifications: synthetic plant promoter
notes: synthetic plant promoter for maize, subelements eFMV, e35S, eNOS, prCMP, xZmH3Cis, eTMV; 1294 bp

What was measured:
Assay type in all cases: in vivo
[1] = test system: oat HPPD protein expression; experiment: oat HPPD protein expression by ELISA in T1 transgenic soybean events; conditions: inferred from ELISA and mesotrione tolerance of HOM vs HET siblings
From the text: To express a synthetic oat (Avena sativa) 4-hydroxyphenylpyruvate dioxygenase (cAvHPPD) in stably transformed soybean, viral transcriptional and translational enhancers, and a minimal promoter were created by PCR or direct DNA synthesis and combined by standard DNA restriction digestion and ligation reactions. A synthetic plant promoter comprising defined components eFMV (SEQ ID NO: 1), eTMV (SEQ ID NO: 2), the Cauliflower Mosaic Virus 35S enhancer region (e35S) and a minimal promoter (pr35SCMP: Cestrum Yellow Leaf Curl virus TATA-box motif; no CAAT 35S-proximal promoter sequence) were combined to create SEQ ID NO: 3. Subsequently, SEQ ID NO: 3 was modified by digestion with a DNA restriction enzyme XhoI to remove defined components e35S, pr35SCMP (including the TATA-box motif) followed by a standard ligation reaction to create SEQ ID NO: 4. […] One skilled in the art would readily recognize other subelements which would be suitable to use.
The plasmids containing the synthetic plant promoter expression cassettes were transformed into soybean using Agrobacterium tumefaciens. […] Expression of cAvHPPD of surviving T0 plants was quantified by ELISA (Engvall E, Perlman P (1971). “Enzyme-linked immunosorbent assay (ELISA). Quantitative assay of immunoglobulin G”. Immunochemistry 8(9):871-874).
(§1) The first generation transgenic soybean events (T1) harboring SEQ ID NO: 3, SEQ ID NO: 4, SEQ ID NO: 5, SEQ ID NO: 6, or SEQ ID NO: 7 were characterized for segregation analysis, oat HPPD protein expression and tolerance to mesotrione herbicide spray. The green leaf tissues from the first trifoliate of five independent events were sampled to determine the segregation ratios (homozygous, heterozygous or null) of the individual seedlings as determined by zygosity Taqman® assays and oat HPPD protein expression by ELISA. At the V2 stage, the seedlings were sprayed with the HPPD inhibiting herbicide mesotrione and tolerance rating determined approximately 10 days post-application.

[2] = test system: transgenic soybean events; experiment: tolerance to mesotrione herbicide spray of T1 transgenic soybean seedlings; conditions: sprayed at V2 stage, rated approximately 10 days post-application
From the text: as §1

[3] = test system: transgenic corn events; experiment: Glyphosate phytotoxicity (percent injury) of transgenic corn events carrying promoter-EPSPS cassettes; conditions: maize; for efficiency in promoting expression of an operably linked heterologous sequence compared with unmodified cestrum virus promoter: EPSPS gene, glyphosate tolerance
From the text: SEQ ID NO: 8 was synthesized by Gene Art as a SanDI/BamHI fragment then ligated directly into a cloning vector harboring the EPSPS gene (cZmEPSPSct-01) to confer glyphosate tolerance (Terada, et al., (1995) A type I element composed of the hexamer (ACGTCA) and octamer (CGCGGATC) motifs plays a role(s) in meristematic expression of a wheat histone H3 gene in transgenic rice plants. Plant Molecular Biology 27: 17-26). SEQ ID NO: 9 was created by ligation of the xZmH3Cis DNA elements to the prCMP promoter as an NheI fragment such that these elements are 5′ to the TATA-BOX (Brignon, et al., (1993) Nuclease sensitivity and functional analysis of a maize histone H3 gene promoter. Plant Molecular Biology 22: 1007-1015).
See Table 9 for glyphosate phytotoxicity, in terms of percent injury. Plants were sprayed with an appropriate amount of glyphosate (i.e. 4× Touchdown®) at the V4 stage and the V8 stage. Percent injury was measured at 7 and 14 days after the V4 stage glyphosate spray, as well as 7 and 14 days after V8 stage glyphosate spray.

Molecule	transgene silencing in HOM plants [1]	tolerance to mesotrione herbicide spray [2]	evidence of HDGS and HDMS [3]	efficiency in promoting expression of an operably linked heterologous sequence compared with unmodified cestrum virus promoter [3]	efficiency in promoting expression of an operably linked heterologous sequence compared with unmodified cestrum virus promoter ([3]; listed as 8)	efficiency in promoting expression of an operably linked heterologous sequence compared with unmodified cestrum virus promoter ([3]; listed as 9)
B1	relieve transgene silencing	improved tolerance to the HPPD inhibitor herbicide mesotrione	–	–	–	–
B2	–	–	no evidence of HDGS and HDMS	function at least as well on average as the unmodified cestrum virus promoter	as efficient in promoting the expression of an operably linked heterologous sequence as an unmodified cestrum virus promoter	–
B3	–	–	no evidence of HDGS and HDMS	function at least as well on average as the unmodified cestrum virus promoter	–	as efficient in promoting the expression of an operably linked heterologous sequence as an unmodified cestrum virus promoter
